Data taken from patent US20230235032A1 (published 2023).

Biological target: T1, human α-CGRP (1-37, WT) (human, not fully specified; C-terminal amide; N-terminally biotinylated when captured on the chip; 125I-labelled in the radioligand assay)
T1 construct: also called full length human α-CGRP
T1 peptide: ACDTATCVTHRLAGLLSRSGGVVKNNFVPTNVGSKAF
Test: Biacore competition: 50 nM G1 Fab + 10 uM peptide, over human α-CGRP on SA chip
Method: All Biacore assays were conducted in HBS-EP running buffer (10 mM HEPES pH 7.4, 150 mM NaCl, 3 mM EDTA, 0.005% v/v polysorbate P20). CGRP surfaces were prepared by diluting the N-biotinylated CGRP to a concentration of less than 0.001 mg/mL into HBS-EP buffer and injecting it across the SA sensor chip using variable contact times. […] Samples were typically injected for 1 minute at 100 μL/min and dissociation times of at least 10 minutes were allowed. […] An entire titration series (typically generated in duplicate) was fit globally to a 1:1 Langmuir binding model using the BIAevaluation program. This returned a unique pair of association and dissociation kinetic rate constants (respectively, kₒₙ and koff) for each binding interaction, whose ratio gave the equilibrium dissociation constant (KD=koff/kₒₙ).

B1: anti-CGRP antibody G1, Fab fragment (Fab, V domains shown)
VH: EVQLVESGGGLVQPGGSLRLSCAASGFTFSNYWISWVRQAPGKGLEWVAEIRSESDASATHYAEAVKGRFTISRDNAKNSLYLQMNSLRAEDTAVYYCLAYFDYGLAIQNYWGQGTLVTVSS
VL: EIVLTQSPATLSLSPGERATLSCKASKRVTTYVSWYQQKPGQAPRLLIYGASNRYLGIPARFSGSGSGTDFTLTISSLEPEDFAVYYCSQSYNYPYTFGQGTKLEIK
notes: Fab expressed in E. coli; the vector adds the CH1 constant domain of human IgG2 (Ig gamma-2 chain C region, P01859) and the human kappa light chain constant domain (CAA09181); purified on Ni-NTA, tag not described
- percentage of binding blocked by competing peptide: 100%
